Measurements from patent publication US20120208867, “HMGB1 BINDING NUCLEIC ACID MOLECULE AND APPLICATIONS THEREOF” (published 2012).

B1: 2'F-CU-R4_9068 (ssRNA)
RNA: GGGACGCUCACGUACGCUCAUGAUAUUUAAAUUUGGCCGCGUUUAAAACAUCCCCUACGAUCAGUGCCUGGACGUGCAGU
modifications: 2'-F on all C and U
B2: 2'F-CU-#06 (ssRNA)
RNA: GGGACGCUCACGUACGCUCAUACACUGCACGCUCCGCUUUGAACAUCAAUGGAGGCCCUGUCAGUGCCUGGACGUGCAGU
modifications: 2'-F on all C and U
B3: 2'F-U-#06 (ssRNA)
RNA: B2 RNA
modifications: 2'-F on all U
B4: 2'F-C-#06 (ssRNA)
RNA: B2 RNA
modifications: 2'-F on all C
B5: 2'F-CU-#80 (ssRNA)
RNA: GGGACGCUCACGUACGCUCACAUCUGAAUUUAAGCCACGUAGAACCAGGCCCUCCACGCGUCAGUGCCUGGACGUGCAGU
modifications: 2'-F on all C and U
B6: 2'F-C-#80 (ssRNA)
RNA: B5 RNA
modifications: 2'-F on all C
B7: 2'F-U-#80 (ssRNA)
RNA: B5 RNA
modifications: 2'-F on all U

Molecular target: T1, His-tagged HMGB1 (UniProt P09429 P09429:1-215)
T1 sequence (P09429 whole entry, one chain of several): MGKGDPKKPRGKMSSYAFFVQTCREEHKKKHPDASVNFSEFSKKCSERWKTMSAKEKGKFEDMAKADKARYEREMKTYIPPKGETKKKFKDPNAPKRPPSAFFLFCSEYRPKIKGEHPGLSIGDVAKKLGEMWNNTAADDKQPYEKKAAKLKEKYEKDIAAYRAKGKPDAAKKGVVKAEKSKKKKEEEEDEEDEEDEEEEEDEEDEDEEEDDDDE
Experiment: SPR; 160 nM protein
Details: tags: N-terminal His-tag
Description: (§1) The ability of each of the aforementioned RNA aptamers to bind to HMGB1 in which His-tag was added to the N-terminus (His-tag-added HMGB1) was examined. For the analysis of the aforementioned binding ability, a BIACORE (registered trademark) X (manufactured by GE Healthcare) was used according to its instruction manual.
(§2) First, a sensor chip (trade name: Sensor Chip SA, manufactured by GE Heathcare) specially made for a BIACORE was set on the aforementioned BLACORE (registered trademark) X. Biotinylate deoxythymidine (5 μmol/L) was injected into the flow cell 2 of the aforementioned sensor chip using a running buffer and subjected to binding until the signal intensity (RU: resonance unit) reached about 1000 RU. For the aforementioned biotinylated deoxythymidine, 20-base-long deoxythymidine in which the 5′ end was biotinylated was used. Then, 10 μg/mL of an RNA aptamer was injected at a flow rate of 20 μL/min for 1 min into the aforementioned flow cells 1 and 2 of the aforementioned chip using a running buffer and subjected to binding until the signal intensity reached about 1000 RU. Next, […] for 30 sec using the aforementioned running buffer, and under the same conditions the aforementioned running buffer was allowed to flow continuously for washing. Simultaneously with the injection of the aforementioned His-tag-added HMGB1 and washing with the aforementioned running buffer, signal intensity was measured. The aforementioned running buffer was composed of 20 mmol/L of HEPES, 500 mmol/L of NaCl, 0.1 mmol/L of MgCl₂, and 0.1% Triton X-100 (registered trademark), with the pH thereof being 7.2. As a blocking agent for suppressing nonspecific binding, tRNA was used in a concentration of 1 mg/mL. In a comparative example, signal intensity was measured in the same manner except that the aforementioned comparative example RNA was used in place of the aforementioned example RNA aptamers.

Binding result, binds:
GGGUAAGCACGUAGCACCAGUGUGCCUGGACGUGCAGU (ssRNA) [R8c6_1-25-S6A]
GGGAAGACACGUAGCACCAGUGUGCCUGGACGUGCAGU (ssRNA) [R8c6_1-26-S6]
GGGUAAGACACGUAGCACCGUGUGCCGGACGUGCAGU (ssRNA) [R8c6_1-25-S6A2]
GGGUAAGACACGUAGACCAGUGUGCCUGGACGUGCAGU (ssRNA) [R8c6_1-25-S6C]
GGGUAAGACACGUAGCACCAGUGUGCCUGGAGUGCAGU (ssRNA) [R8c6_1-25-S6C2]
GGGUAAGACACGUAGCACCAGUGUGCCUGGACGUGCGU (ssRNA) [R8c6_1-25-S6A3]
GGGAGACACGUAGCACCAGUGUGCCUGGACGUGCAGU (ssRNA) [R8c6_1-27-S6]
GGGUAAGACACGUAGCACCAGUGUGCCUGGACGUGCAGU (ssRNA) [R8c6_1-25-S6]
GGGUAAGACACGUAGCACCAGUGCCUGGACGUGCAGU (ssRNA) [R8c6_1-25-S8]

Molecular target: T1, His-tagged HMGB1
Experiment: SPR; 150 nM protein
Details: tags: N-terminal His-tag
Description: as §1, §2

Binding result, binds:
GGGUAAGCACGUAGCACCAGUGUGCCUGGACGUGCAGU (ssRNA, 2'-F on all C and U) [2'F-R8c6_1-25-S6A]
GGGAAGACACGUAGCACCAGUGUGCCUGGACGUGCAGU (ssRNA, 2'-F on all C and U) [2'F-R8c6_1-26-S6]
GGGUAAGACACGUAGCACCGUGUGCCGGACGUGCAGU (ssRNA, 2'-F on all C and U) [2'F-R8c6_1-25-S6A2]
GGGUAAGACACGUAGACCAGUGUGCCUGGACGUGCAGU (ssRNA, 2'-F on all C and U) [2'F-R8c6_1-25-S6C]
GGGACAGUAAGACACGUAGCACCAGUGCCUGGACGUGCAGU (ssRNA) [R8c6_1-21-S8]
GGGUAAGACACGUAGCACCAGUGUGCCUGGAGUGCAGU (ssRNA, 2'-F on all C and U) [2'F-R8c6_1-25-S6C2]
GGGCAGUAAGACACGUAGCACCAGUGCCUGGACGUGCAGU (ssRNA) [R8c6_1-22-S8]
GGGCAGUAAGACACGUAGCACCAGUGCCUGGACGUGCAGU (ssRNA, 2'-F on all C and U) [2'F-R8c6_1-22-S8]
GGGAGACACGUAGCACCAGUGUGCCUGGACGUGCAGU (ssRNA, 2'-F on all C and U) [2'F-R8c6_1-27-S6]
GGGGUAAGACACGUAGCACCAGUGCCUGGACGUGCAGU (ssRNA) [R8c6_1-24-S8]
GGGGUAAGACACGUAGCACCAGUGCCUGGACGUGCAGU (ssRNA, 2'-F on all C and U) [2'F-R8c6_1-24-S8]
GGGCAGUAAGACACGUAGCACCAGUGUGCCUGGACGUGCAGU (ssRNA) [R8c6_1-22-S6]
GGGCAGUAAGACACGUAGCACCAGUGUGCCUGGACGUGCAGU (ssRNA, 2'-F on all C and U) [2'F-R8c6_1-22-S6]
GGGAGUAAGACACGUAGCACCAGUGCCUGGACGUGCAGU (ssRNA) [R8c6_1-23-S8]
GGGAGUAAGACACGUAGCACCAGUGCCUGGACGUGCAGU (ssRNA, 2'-F on all C and U) [2'F-R8c6_1-23-S8]
GGGGUAAGACACGUAGCACCAGUGUGCCUGGACGUGCAGU (ssRNA) [R8c6_1-24-S6]
GGGGUAAGACACGUAGCACCAGUGUGCCUGGACGUGCAGU (ssRNA, 2'-F on all C and U) [2'F-R8c6_1-24-S6]
GGGACAGUAAGACACGUAGCACCAGUGUGCCUGGACGUGCAGU (ssRNA) [R8c6_1-21-S6]
GGGUAAGACACGUAGCACCAGUGUGCCUGGACGUGCAGU (ssRNA, 2'-F on all C and U) [2'F-R8c6_1-25-S6]
GGGUAAGACACGUAGAACCAGUGACUGGAAGUGCAGU (ssRNA, 2'-F on all C and U) [2'F-R8c6_1-25-S8CA]
GGGUAAGACACGUAGAACCAGUGACUGGAAGUGCAGU (ssRNA) [R8c6_1-25-S8CA]
GGGUAAGACACGUAGCACCAGUGCCUGGACGUGCAGU (ssRNA, 2'-F on all C and U) [2'F-R8c6_1-25-S8]
GGGAGUAAGACACGUAGCACCAGUGUGCCUGGACGUGCAGU (ssRNA) [R8c6_1-23-S6]
GGGAGUAAGACACGUAGCACCAGUGUGCCUGGACGUGCAGU (ssRNA, 2'-F on all C and U) [2'F-R8c6_1-23-S6]

Molecular target: T1, His-tagged HMGB1
Experiment: SPR; 200 nM protein, 150 mM NaCl; above unmodified 40N
Details: tags: N-terminal His-tag
Description: First, a sensor chip (trade name: Sensor Chip SA, manufactured by GE Heathcare) specially made for a BIACORE was set on the aforementioned BLACORE (registered trademark) X. Biotinylate deoxythymidine (5 μmol/L) was injected into the flow cell 2 of the aforementioned sensor chip using a running buffer and subjected to binding until the signal intensity (RU: resonance unit) reached about 1000 RU. For the aforementioned biotinylated deoxythymidine, 20-base-long deoxythymidine in which the 5′ end was biotinylated was used. Then, 10 μg/mL of an RNA aptamer was injected at a flow rate of 20 μL/min for 1 min into the aforementioned flow cells 1 and 2 of the aforementioned chip using a running buffer and subjected to binding until the signal intensity reached about 1000 RU. Next, 675 nmol/L of the aforementioned His-tag-added HMGB1 was injected at a flow rate of 20 μL/min for 30 sec using the aforementioned running buffer, and under the same conditions the aforementioned running buffer was allowed to flow continuously for washing. Simultaneously with the injection of the aforementioned His-tag-added HMGB1 and washing with the aforementioned running buffer, signal intensity was measured. The aforementioned running buffer was composed of 20 mmol/L of HEPES, 500 mmol/L of NaCl, 0.1 mmol/L of MgCl₂, and 0.1% Triton X-100 (registered trademark), with the pH thereof being 7.2. As a blocking agent for suppressing nonspecific binding, tRNA was used in a concentration of 1 mg/mL. In a comparative example, signal intensity was measured in the same manner except that the aforementioned comparative example RNA was used in place of the aforementioned example RNA aptamers.
An analysis of ability to bind to the aforementioned His-tag-added HMGB1 (manufactured by Sigma) was carried out in the same manner as in (2) above of the aforementioned Example 1 except that the aforementioned fluorinated RNA aptamers were used, the concentration of the aforementioned His-tag-added HMGB1 was 200 nmol/L, the concentration of NaCl in the aforementioned running buffer was 150 mmol/L, and the injection time of the aforementioned His-tag-added HMGB1 was 60 seconds. Also, an analysis was carried out in the same manner on unmodified R8c6_{—}1 that was not fluorinated.

Binding result, binds:
B1
B2
B3
B4
B5
B6
B7
